{
  "source": "patent US20200148732A1",
  "about": "(UNIVERSITY OF COPENHAGEN, published 2020)",
  "binders": {"B1": {"name": "MMS22L (endogenous, in cell extracts) (other, UniProt Q6ZRQ5 1-1243, looked up)", "chain": "MENCSAASTFLTDSLELELGTEWCKPPYFSCAVDNRGGGKHFSGESYLCSGALKRLILNLDPLPTNFEEDTLEIFGIQWVTETALVNSSRELFHLFRQQLYNLETLLQSSCDFGKVSTLHCKADNIRQQCVLFLHYVKVFIFRYLKVQNAESHVPVHPYEALEAQLPSVLIDELHGLLLYIGHLSELPSVNIGAFVNQNQIKLFPPSWHLLHLHLDIHWLVLEILYMLGEKLKQVVYGHQFMNLASDNLTNISLFEEHCETLLCDLISLSLNRYDKVRSSESLMSDQCPCLCIKELWVLLIHLLDHRSKWFVSESFWNWLNKLLKTLLEKSSDRRRSSMPVIQSRDPLGFSWWIITHVASFYKFDRHGVPDEMRKVESNWNFVEELLKKSISVQGVILEEQLRMYLHCCLTLCDFWEPNIAIVTILWEYYSKNLNSSFSISWLPFKGLANTMKSPLSMLEMVKTCCCDKQDQELYKSSSSYTIFLCILAKVVKKAMKSNGPHPWKQVKGRIYSKFHQKRMEELTEVGLQNFFSLFLLLAAVAEVEDVASHVLDLLNFLKPAFVTSQRALIWKGHMAFLLMYAQKNLDIGVLAEKFSCAFREKAKEFLVSKNEEMVQRQTIWTLLSIYIDGVQEVFETSYCLYPSHEKLLNDGFSMLLRACRESELRTVLSFLQAVLARIRSMHQQLCQELQRDNVDLFVQSSLSAKERHLAAVASALWRHFFSFLKSQRMSQVVPFSQLADAAADFTLLAMDMPSTAPSDFQPQPVISIIQLFGWDDIICPQVVARYLSHVLQNSTLCEALSHSGYVSFQALTVRSWIRCVLQMYIKNLSGPDDLLIDKNLEEAVEKEYMKQLVKLTRLLFNLSEVKSIFSKAQVEYLSISEDPKKALVRFFEAVGVTYGNVQTLSDKSAMVTKSLEYLGEVLKYIKPYLGKKVFSAGLQLTYGMMGILVKSWAQIFATSKAQKLLFRIIDCLLLPHAVLQQEKELPAPMLSAIQKSLPLYLQGMCIVCCQSQNPNAYLNQLLGNVIEQYIGRFLPASPYVSDLGQHPVLLALRNTATIPPISSLKKCIVQVIRKSYLEYKGSSPPPRLASILAFILQLFKETNTDIYEVELLLPGILKCLVLVSEPQVKRLATENLQYMVKACQVGSEEEPSSQLTSVFRQFIQDYGMRYYYQVYSILETVATLDQQVVIHLISTLTQSLKDSEQKWGLGRNIAQREAYSKLLSHLGQMGQDEMQRLENDNT"}},
  "target": "T1, GFP-TONSL W563A (Homo sapiens, UniProt Q96HA7 1-1378)",
  "T1 construct": "also called TONSL W563A / GFP; not shown: N-terminal GFP tag",
  "T1 sequence": "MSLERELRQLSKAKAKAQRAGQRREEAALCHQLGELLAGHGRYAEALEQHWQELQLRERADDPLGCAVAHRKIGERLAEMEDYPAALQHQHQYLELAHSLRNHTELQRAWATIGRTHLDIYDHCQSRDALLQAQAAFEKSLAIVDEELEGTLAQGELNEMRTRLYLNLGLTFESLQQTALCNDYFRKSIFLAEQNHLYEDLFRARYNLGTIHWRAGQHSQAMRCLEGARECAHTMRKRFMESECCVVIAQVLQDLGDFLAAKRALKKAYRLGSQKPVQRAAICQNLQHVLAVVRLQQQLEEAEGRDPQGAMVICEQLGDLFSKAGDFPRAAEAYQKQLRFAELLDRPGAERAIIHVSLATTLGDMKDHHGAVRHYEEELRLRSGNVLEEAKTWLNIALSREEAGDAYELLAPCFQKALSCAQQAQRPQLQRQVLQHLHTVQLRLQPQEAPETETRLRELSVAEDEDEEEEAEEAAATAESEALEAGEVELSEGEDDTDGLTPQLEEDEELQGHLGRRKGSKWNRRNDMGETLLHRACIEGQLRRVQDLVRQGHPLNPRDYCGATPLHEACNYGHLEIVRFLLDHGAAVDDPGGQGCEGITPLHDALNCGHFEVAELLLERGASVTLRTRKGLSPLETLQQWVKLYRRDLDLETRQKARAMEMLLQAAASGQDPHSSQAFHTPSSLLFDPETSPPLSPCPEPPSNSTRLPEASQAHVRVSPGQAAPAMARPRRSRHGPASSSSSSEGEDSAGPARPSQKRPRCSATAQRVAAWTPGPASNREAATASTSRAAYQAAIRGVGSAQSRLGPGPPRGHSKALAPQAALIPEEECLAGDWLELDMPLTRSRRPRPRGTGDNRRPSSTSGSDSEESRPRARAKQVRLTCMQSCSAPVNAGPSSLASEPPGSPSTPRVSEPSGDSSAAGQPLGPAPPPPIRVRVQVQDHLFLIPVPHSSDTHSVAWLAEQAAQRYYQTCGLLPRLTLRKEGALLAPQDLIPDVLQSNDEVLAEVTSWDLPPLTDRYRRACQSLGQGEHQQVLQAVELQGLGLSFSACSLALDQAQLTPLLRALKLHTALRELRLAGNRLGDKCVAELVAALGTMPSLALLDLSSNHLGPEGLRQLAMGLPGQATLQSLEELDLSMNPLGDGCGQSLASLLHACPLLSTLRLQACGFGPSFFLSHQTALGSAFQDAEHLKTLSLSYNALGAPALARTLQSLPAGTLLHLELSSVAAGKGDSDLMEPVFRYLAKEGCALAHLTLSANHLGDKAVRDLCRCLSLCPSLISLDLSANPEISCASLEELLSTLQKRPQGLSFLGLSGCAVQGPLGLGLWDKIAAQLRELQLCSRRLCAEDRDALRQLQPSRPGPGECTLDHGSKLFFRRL",
  "experiment": "GFP immunoprecipitation of GFP-TONSL from transfected HeLa S3 cells, western blot (co-IP; association may be indirect)",
  "data": [
    {"binder": "B1", "values": [
      {"measurement": "binding result", "value": "binds"}
    ]}
  ]
}
